How the values were obtained:
Details in all cases: both partners purified
Aβ(1–40) monomer = biological target: T1, Aβ(1–40) monomer (Homo sapiens, UniProt P05067); assay: SPR; Biacore 3000; antibody captured on a CM5 chip via immobilised anti-mouse or anti-human antibody; monomeric Aβ peptides injected (240 µl, 30 µl/min), running buffer HBS-EP; 1:1 Langmuir binding model
T1 construct: amyloid beta peptide, residues 1-40

Aβ(3–40) monomer = biological target: T2, Aβ(3–40) monomer (Homo sapiens, UniProt P05067); assay: as above
T2 construct: amyloid beta peptide, residues 3-40, N-terminal glutamate not cyclised

fibrils of 100% Aβ(1–42) = biological target: T3, fibrils of 100% Aβ(1–42) (Homo sapiens, UniProt P05067); assay: SPR; Biacore 3000; Aβ oligomers or fibrils captured with pE3-Aβ-specific antibodies (pure pE3-Aβ aggregates) or an N-terminal non-pE3-Aβ-specific antibody (Aβ(1–42) aggregates and mixtures); PBD-C06 antibody injected; Single Cycle Kinetics model; bivalent binding
T3 construct: amyloid beta peptide, residues 1-42; also called Mixed Fibrils 0: 100; source: 350 µM Aβ(1–42), diluted to 50 µM, fibrillated 7 days at 37 °C, pH 8.7

[1] = biological target: T4, oligomers (AADL) of 100% Aβ(1–42) (Homo sapiens, UniProt P05067); assay: as above
T4 construct: amyloid beta peptide, residues 1-42; also called Mixed Oligomers (AADL) 0: 100; oligomers consisting of 100% Aβ(1–42); source: 2500 µM Aβ(1–42) added to Ham's F-12 medium, 18 hours at 4 °C, supernatant after centrifugation

B1: murine PBD-C06 precursor antibody (antibody, V domains shown)
VH: EVQLQQSGPELVKPGASMKISCKASGYSFTGYTMNWVKQSHGKNLEWIGLINPYNGVTRYNQKFKGKATLIVDKSSSTAYMELLSLTSEDSAVYYCTREAKREWDETYWGQGTLVTVSA
VL: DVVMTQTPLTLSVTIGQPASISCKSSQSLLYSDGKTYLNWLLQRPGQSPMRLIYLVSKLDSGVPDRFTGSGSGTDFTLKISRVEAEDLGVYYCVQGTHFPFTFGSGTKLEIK
notes: murine hybridoma precursor VH; murine heavy chain constant region; murine hybridoma precursor VL; murine light chain constant region, not described; Whole antibody; also called murine precursor antibody
Kd (Aβ(1–40) monomer): 6310 nM
koff (Aβ(1–40) monomer): 0.0025 s⁻¹
kon (Aβ(1–40) monomer): 390 M⁻¹ s⁻¹
Kd (Aβ(3–40) monomer): 796 nM
koff (Aβ(3–40) monomer): 0.0025 s⁻¹
kon (Aβ(3–40) monomer): 3200 M⁻¹ s⁻¹
Kd (fibrils of 100% Aβ(1–42)): 1.81 nM
Kd [1]: 2.02 nM
